Measured values from patent publication US20040101905A1, “Product” (priority 2000, published 2004).

Experiments:
[1] = molecular target: T1, SC (secretory component, extracellular portion of the poly Ig receptor) (Homo sapiens, UniProt P01833); assay: ELISA of phage binding to immobilised SC; settings: for SC binding of single phage clones (ELISA): immobilised colostrum SC
T1 construct: “secretory component”—the extracellular portion of the poly Ig receptor; from tissue; host or cells: human colostrum
T1 sequence (P01833 19-603 limits assumed): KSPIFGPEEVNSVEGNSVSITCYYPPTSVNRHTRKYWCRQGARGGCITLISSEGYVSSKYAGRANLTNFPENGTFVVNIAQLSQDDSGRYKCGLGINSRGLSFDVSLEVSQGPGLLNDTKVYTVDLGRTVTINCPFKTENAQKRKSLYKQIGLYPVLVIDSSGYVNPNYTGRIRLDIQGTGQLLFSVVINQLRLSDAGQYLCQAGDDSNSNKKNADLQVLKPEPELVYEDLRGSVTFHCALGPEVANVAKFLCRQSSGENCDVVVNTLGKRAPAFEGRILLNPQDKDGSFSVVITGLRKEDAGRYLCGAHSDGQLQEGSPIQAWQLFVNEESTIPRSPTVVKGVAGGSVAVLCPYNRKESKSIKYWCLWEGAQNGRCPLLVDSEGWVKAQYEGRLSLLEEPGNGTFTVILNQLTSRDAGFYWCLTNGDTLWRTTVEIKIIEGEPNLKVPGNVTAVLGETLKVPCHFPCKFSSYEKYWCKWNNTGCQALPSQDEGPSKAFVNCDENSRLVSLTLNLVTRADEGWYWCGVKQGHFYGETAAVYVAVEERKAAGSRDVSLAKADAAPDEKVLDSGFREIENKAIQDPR
Experimental: Affinity selection: Free SC purified from human colostrum by Jackaline-Sepharose column (Pharmacia Biotech, Uppsala, Sweden) (Brandtzaeg P. Scand. J. Immunol. 1974, 3:579-88) was used. SC was immobilised in Nunc MaxiSorp (Costar) tubes at approximately 30 μg/ml in a volume of 500 μl in each tube at 4° C. ON. The tubes were blocked with 1% BSA or 1% milk powder in PBS for 1 h at RT. Approximately 10^10 TU from each library were pre incubated with PBS and 1% BSA or 1% milk powder (1:1) for 1 h at 4° C. before they were added to the tubes and incubated at RT for 1.5 h. The tubes were washed 6 times with PBS/0.05% Tween 20. Bound phage were eluted by incubation with 500 μl 0.1M HCl-glycine pH 2.2 for 10 min and neutralised with 75 μl 0.1M Tris pH 9.1. Phage were amplified essentially as described by Smith and Scott (Methods Enzymol., 1993, 217:228-257) and two additional rounds of affinity selection were performed.
ELISA assay. The purified colostrum SC was coated at 30 μg/ml in Nunc MaxiSorb wells in PBS at 4° C. ON. The wells were blocked with 200 μl PBS with 1% BSA or 1% milk powder for 1 h at RT. Phage supernatants from amplified eluates or single colonies were diluted 1:1 in blocking buffer, added to the wells and allowed to react with immobilsed SC for 1.5 h at RT. The wells were washed 6 times with PBS/0.05% Tween and bound phage were detected by adding a horse radish peroxidase (HRP)/Anti-M13 IgG conjugate (Pharmacia) 1:4000 in PBS with 1% BSA or 1% milk powder. After incubation for 1 h at RT, washing with PBS/[…] and addition of ABTS substrate solution (ABTS tablets from Boehringer Mannheim in citrate buffer, pH 4.0) the ABTS-HRP reactions were read in a microtiter plate reader set at […] (Dynatech MR 700).

FcγRI receptor = molecular target: T2, FcγRI receptor (Homo sapiens, UniProt P12314); assay: Affinity selection of phage displayed peptides on IFN-γ stimulated U937 cells (FcγRI binding)
T2 construct: To increase FcγRI expression the U937-cells were treated with 100 U/ml IFN-γ for 40 hours; endogenous in cells; host or cells: U937 cells stimulated with IFN-γ
T2 sequence (P12314 16-374): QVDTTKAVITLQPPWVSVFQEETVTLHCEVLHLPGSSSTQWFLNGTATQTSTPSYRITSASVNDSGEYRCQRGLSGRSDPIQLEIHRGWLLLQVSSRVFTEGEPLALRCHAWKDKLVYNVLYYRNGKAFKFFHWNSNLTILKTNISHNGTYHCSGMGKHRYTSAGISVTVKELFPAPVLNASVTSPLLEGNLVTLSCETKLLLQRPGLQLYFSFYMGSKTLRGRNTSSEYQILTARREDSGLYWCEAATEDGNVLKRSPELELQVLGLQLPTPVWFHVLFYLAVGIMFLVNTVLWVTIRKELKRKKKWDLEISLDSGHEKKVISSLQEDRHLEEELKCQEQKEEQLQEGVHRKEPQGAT
Experimental: (§1) Affinity selection: For affinity selection, […] stimulated U937cells were washed in 20 ml pan-wash buffer (PBS pH7.4, 1% BSA, 1 mMCaCl2, 10 mMMgCl2) and then resuspended in 1 ml pan-wash buffer. Portions (1×10^10 E. coli K91K transducing units (TU)) of each library were added to the cells. Cells and phages were incubated with agitation for 1.5 hours at 4° C. Unbound phages were removed by washing the cells 6 times with 2 ml pan-wash buffer. Bound phages were eluted in 200 μl 0.1M HCl-glycine pH 2.2 for 10 minutes on ice. The eluates were neutralised with 17 μl 1.5M Tris pH 8.8. Phages were amplified (essentially as described in Smith and Scott Methods Enzymol. 1993;217:228-57). A second round of affinity selection was performed using an input of 10^9 phages.
Peptide sequences of affinity selected phage clones: PCR products covering the peptide coding insert were created using the primers fUSE5 for (5′ […] 3′) and fUSE5 (5′[…] 3′). The PCR products were sequenced (GATC/GmBh Germany) using the primer (5′[…] 3′) and the results shown in Table 1.

[2] = system: IFN-γ stimulated U937 cells; assay: Phage binding to IFN-γ stimulated U937 cells; assay type: cell-based, human; settings: for % output / Output (number of bound phages): U937-INF-γ, input 5 × 10^7 TU; for Output (number of bound phages): 3×10^6 cells, acid eluate
Experimental: (§2) Cells: U937 cells (ATCC CRL-1593) and K562 cells (ATCC CCL-243) were maintained in RPMI 1640 medium (Gibco laboratories) supplemented with 10% heat-inactivated FCS (Biological Industries, Beth Haemark), 2 mM L-glutamine, 100 U/ml penicillin (Gibco). Cells-were incubated at 5% CO2 and 37° C. at density ranging from 10^5 to 10^6 cells/ml.
To increase FcγRI expression the U937-cells were treated with 100 U/ml IFN-γ for 40 hours.
as §1
(§3) Cell binding of individual phages: Phage expressing the peptide CLRSGLGC were analysed for binding unstimulated U937 cells, IFN-γ stimulated U937 cells, as well as K562 cells. Both U937 and […]. Whereas INF-γ stimulated U937 cells express an increased number of FcγRI, K562-cells preferentially express FcγRII. 5×10^7 TU of individual phage clones were added to 3×10^6 cells in pan-wash buffer, incubated and eluted as described above.

K562 cells = assay: Phage binding to K562 cells; assay type: cell-based, human; settings: input 5 × 10^7 TU; for Output (number of bound phages): 3×10^6 cells
Experimental: as §2, §1, §3

unstimulated U937 cells = assay: Phage binding to unstimulated U937 cells; assay type: cell-based, human; settings: input 5 × 10^7 TU; for Output (number of bound phages): 3×10^6 cells
Experimental: as §2, §1, §3

[3] = molecular target: T3, FcFcR (recombinant dimeric soluble human FcγRI) (Homo sapiens, UniProt P12314); assay: Binding of phage displayed peptides to recombinant dimeric FcγRI (FcFcR) immobilised via protein A
T3 construct: the extracelluar part of the human FcγRI genetically fused to human IgG4; made in house; host or cells: mouse myeloma cell line NSO (lysate of transfected cells, not purified)
T3 sequence (P12314 16-292 limits assumed): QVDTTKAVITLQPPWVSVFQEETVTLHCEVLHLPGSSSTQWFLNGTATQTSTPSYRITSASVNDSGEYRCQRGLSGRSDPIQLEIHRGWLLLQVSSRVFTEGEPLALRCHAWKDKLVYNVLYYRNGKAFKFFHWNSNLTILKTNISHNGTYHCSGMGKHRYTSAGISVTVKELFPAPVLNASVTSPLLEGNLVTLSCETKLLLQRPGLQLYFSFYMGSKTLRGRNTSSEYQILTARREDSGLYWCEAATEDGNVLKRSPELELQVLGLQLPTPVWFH
Experimental: (§4) Protein A was immobilised in wells at 10 μg/ml in a volume of 200 μl at 4° C. overnight (ON). The wells were blocked with 1% BSA in PBS for 1 h at room temperature (RT). Lysate from FcFcR-transfected and untransfected cells were added to the wells and incubated at RT for 2 h. The wells were washed and new lysate was added zero, one or two times following 2 h incubation at RT. The wells were washed 7 times with PBS/0.5% Tween 20. 200 μl biotinylated human IgG3 in PBS (1 μg/ml) was added to the wells. The wells were washed as above and binding of biotinylated IgG3 was detected with streptavidin and […] (FIG. 2).
(§5) Wells were coated as described above with lysate from FcFcR transfected NSO cells added three times. Phages displaying the peptide CLRSGLGC were added to the wells and incubated at RT for 1.5 h. The wells were washed 8 times with PBS/0.5% Tween 20. Bound phages were eluted by incubation with 200 μl 0.1M HCl-glycine pH 2.2 for 10 min. and neutralised with 17 μl 0.1M Tris pH 8.8. The number of bound phages were determined as E. coli K91K TU's (Table 4).

[4] = Phage binding to control wells (protein A with lysate from untransfected NSO cells; protein A blocked with BSA)
Experimental: as §4, §5

SC = molecular target: T4, SC (Homo sapiens, UniProt P01833); assay: Inhibition assay of SC binding phages; settings: phages CWTSGARWRLC and CVVWMGFQQVC pre incubated with competitor
T4 construct: “secretory component”—the extracellular portion of the poly Ig receptor; from tissue; host or cells: human colostrum
T4 sequence (P01833 19-603 limits assumed): as the sequence (P01833 19-603 limits assumed) above
Experimental: Inhibition assay of SC binding phages: Nunc MaxiSorb 96 wells plates were coated with 30 μg/ml of purified colostrum SC at 4° C. ON. The plates were blocked in 1% milk powder for 1 h at RT before adding phage. Phage were pre incubated with […] polymeric IgA (pIgA), pIgM or Streptococcus pneumoniae secretory IgA binding protein (SpsA) in PBS/1% milk powder. SpsA is an streptococcal produced SC binding protein (Hammerschmidt et al. Mol Microbiol 1997 sep 25 (6): 1113-24). After incubation for 1.5 h at RT the plates were washed 6 times before HRP/Anti-M13 conjugate (Pharmacia) 1:4000 in PBS with 1% milk powder was added. 6 times of washing with PBS/0.05% Tween were followed by the ABTS substrate solution. The ABTS-HRP reaction was read in a microtiter plate reader set at 405 nm. All samples were run in duplicates.

## CAWHYRFCGAAHSADGACREVFLVC
[1]
  binding to the poly Ig receptor: shown to bind the poly Ig receptor
  SC binding of single phage clones (ELISA): positive

## CFPVGRATC
FcγRI receptor
  binding to the FcγRI receptor: shown to bind the FcγRI receptor

## CGPGGTVGYTC [CONTROL, control phage displaying an irrelevant insert (…), reference compound]
[2]
  % output: <0.0004%
  Output (number of bound phages): <2 × 10^2 TU
K562 cells
  % output: <0.0004%
  Output (number of bound phages): <2 × 10^2 TU
Unstimulated U937 cells
  % output: <0.0004%
  Output (number of bound phages): <2 × 10^2 TU

## CGRVNTWLPQC
FcγRI receptor
  binding to the FcγRI receptor: shown to bind the FcγRI receptor

## CLRSGAGC
FcγRI receptor
  binding to the FcγRI receptor: shown to bind the FcγRI receptor

## CLRSGANC
FcγRI receptor
  binding to the FcγRI receptor: shown to bind the FcγRI receptor

## CLRSGLGC
[2]; IFN-γ stimulated U937 cells
  times more phages eluted compared to the irrelevant control phage: More than 500 times
[2]
  % output: 0.2%
  Output (number of bound phages): 1 × 10^5 TU
[2]; same number of cells
  binding to IFN-γ stimulated U937 cells compared to unstimulated U937 cells and K562 cells: bound significantly better to IFN-γ stimulated U937 cells
K562 cells
  % output: 0.02%
  Output (number of bound phages): 1.4 × 10^4 TU
[3]
  binding to wells with immobilised FcFcR compared to wells with no FcR activity: significant better binding
[3]; lysate from FcFcR transfected cells
  % output: 0.3%
[3]; lysate from FcFcR transfected cells, input 2.5 × 10^8
  Output (number of bound phages): 6.8 × 10^5 TU
Unstimulated U937 cells
  % output: 0.028%
  Output (number of bound phages): 1.4 × 10^4 TU
FcγRI receptor
  binding to the FcγRI receptor: shown to bind the FcγRI receptor
[4]
  % output: 0.05%
[4]; input 2.5 × 10^8
  Output (number of bound phages): 1.2 × 10^5 TU

## CLRSGLHC
FcγRI receptor
  binding to the FcγRI receptor: shown to bind the FcγRI receptor

## CLRSGRAC
FcγRI receptor
  binding to the FcγRI receptor: shown to bind the FcγRI receptor

## CLRSGRGC
FcγRI receptor
  binding to the FcγRI receptor: shown to bind the FcγRI receptor

## CLRSGSGC
FcγRI receptor
  binding to the FcγRI receptor: shown to bind the FcγRI receptor

## CLYGDELC
FcγRI receptor
  binding to the FcγRI receptor: shown to bind the FcγRI receptor

## CQDPICFCGADGACYCTSRNC
[1]
  binding to the poly Ig receptor: shown to bind the poly Ig receptor
  SC binding of single phage clones (ELISA): positive

## CRRATAGCAGC
FcγRI receptor
  binding to the FcγRI receptor: shown to bind the FcγRI receptor

## CRRSGQGC
FcγRI receptor
  binding to the FcγRI receptor: shown to bind the FcγRI receptor

## CRSMVMLRVRC
FcγRI receptor
  binding to the FcγRI receptor: shown to bind the FcγRI receptor

## CSAGRACCRYC
FcγRI receptor
  binding to the FcγRI receptor: shown to bind the FcγRI receptor

## CSWIPGVGLVC
FcγRI receptor
  binding to the FcγRI receptor: shown to bind the FcγRI receptor

## CVVWMGFQQVC
[1]
  binding to the poly Ig receptor: shown to bind the poly Ig receptor
  SC binding of single phage clones (ELISA): SC binding

## CWTSGARWRLC
[1]
  binding to the poly Ig receptor: shown to bind the poly Ig receptor
  SC binding of single phage clones (ELISA): SC binding

## SpsA
SC
  blocking of phage binding to SC: blocked phage from binding to the receptor for both peptides
